Data reported in the domain aggregation screens of Martell et al. (2025).

Assay: soluble fraction after stress (log2 fold change); higher = more stays soluble; pooled small domains, quantitative proteomics
Details: stress: 50 degC
Method in brief: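 Each library was heated to 50°C as a stress step. The libraries, made up of small protein domains, were pooled and analysed at high throughput by quantitative proteomics. The reported value is the base-two logarithm of the fold change in each protein's soluble amount after stress, taken as a measure of aggregation propensity. The higher the value, the more protein stays in solution.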

Row | Sequence | soluble fraction (log2)
1 | HMQNWFADPKFEMFEDYGDAQSFYDTETKNIYVVMAEYGQKGSNTIQEITPDSEEYIPNYEKYKEYMENK | -0.387
2 | HMSDDVELLGRLSDREVSVLQYLSQGYSNKQISEQMFISNKTVSTYKARLLLKLNAGSLVDLIEFAKRNTL | -1.4
3 | HMRMTPRQALDDLIREREETYAAVSRLLGRNTAYIQQYIKRGTPARLDQSDIAQLALHFDVPAKLLGGKE | -0.943
4 | HMFPELTDDEQLIVSTLAKTNDMQINMLAVRTGIPVQRMSALLFSLEMKGVVKMYAGGTYHLL | -1.05
5 | HMGITDHIYQDLKKRLENGNYPAGTRFPSESTLADEFSVNKMTMNKIVSMLAEQGYLIRGNRGAGTRVAEN | -0.0862
6 | HMKITADQEIETAINYFKKSIAEKGWKGVNPDEFKQMNDYLSETFGYSATIKFQKALDEQGLMVDE | 0.0602
7 | HMSVDEVEALYLKIAEDRLEGKLPDKVSESDLMRRYGLTKAQLGAILQRIVHEGWIERTPGHGWRFLPIL | -0.259
8 | HMFMPGTIIKQFRELRNYSQDYVSRKMGISQNAYSKIENNITQLTVTHVKQLSSILDVPIVELLR | -3.32
9 | HMYAHTPEMEAMNELGLEPPVTLDEIKKTYKTLVKKYHPDHNKEDPEAEEKLKKVNMAYTILKVAYTEFEK | -0.147
10 | HMDKKTMFNEALAKLVSYATAHDNLITMEDVKSFFNGLIDDDSQYKLIYDYLSINKIEIKGFT | 0.2
11 | HMDDVYMVPVKDIAINDLKQEFEKLGIPNIQNTIPDKDLNFFIVRKDDLALVNYAIEKTMER | -0.0369
12 | HMQASISVDEAKSIALNYAKFTADQVVYTKSELDYDDGRAEYEIEFYAGGKEYSFTIDAVSGTVLEMEI | -1.7
13 | HMAQLKYEQIKSYLQAEAVKPESATRMPTVRELMRRFNVSLVTVNRALSELEHAKVIVRRQGAGIVAAQ | -0.703
14 | HMHDITPAVAETFKQLRAERGLSLSQAAQLTGVSKAMLGQIERGQSSPTVSTLWKIATGFNVAFSVFL | -2.4
15 | HMSETAEFIIQVNGKVRAKLQLPTDISKEEIQKLALADENVQKYLNGEPRKIIFPPNTRLVSIV | -0.0471
16 | HMIGIGSDVPNKLKPAIYSFGLVAVGEKSVIPDGVQIGKNTAVSGVTSKEDYPDGVLESGETLIKA | 0.0103
17 | HMKTNQINVSGLSKEKNFEVLESLDVYKFYNLFFLNKIKIDQLINSYNHIDNYSVFKKYPSSLIVKLSE | 0.0996
18 | HMHNSQTIIDNIKRIANEQNISLSKLAVISGLGKNTITSMTAKTNIKIETLTAIAKSLNVSIHDLTGE | -0.0839
19 | HMYSFPHQLLKLRTEKQLSQAELATRLFVSRQAVSKWENGDAEPSIDKLILLAKVFNVSLDRLILGT | -1.43
20 | HMYSIDNPPDWLKNLPKGAIRIGVEVFNQVLSKADDEDRARMAAWSAIKAKYEKADDGQWQPKAA | -0.0798
21 | HMRVTEVSYDKFLDMLSGGQVTVVELQENERELYFKAADENGAERIYSTGVFPDADLQKRLSESGVTF | -0.025
22 | HMGQELRFVIQDHEAGIRLDHYLTQQVEGYSRSHLRKLMDQGLITVDGSYRKAGYRLNVGDVIHVVIPPTR | -0.443
23 | HMQPAGEGAILRYLSSGAVKGIGPVMAREIVRRFGTDTFRVMEQEPEKLLKVKGITEQRLQTIMESYQD | -0.0857
24 | HMDSVPEEQLRQLALDKAKEVKRWGQPVELAKMNAHDRRIIHINLQDDPEIETRSEGEGALKSVIISLKK | 0.172
25 | HMPQKSDLTMEEYNKLGLAGGSGSRKLREQVGIRLSVGYGNSKQFYNRLHTFGISLDELKTAVEEVKNG | -0.117

Row | Sequence | soluble fraction (log2)
26 | HMSASTGTVSYKSGATTVWNSPSWHQVKRYVTFGDTVQLLGKTVDQNGATWYKVGDNQWIPELYLNVAG | -0.508
27 | HMVDPRWETPDENLAEQIKSVMPVMWVYDREAKSFVERPAIDFSFSIFERTTLYIYDKDGNEIGFAR | -0.028
28 | HMEIEEIDYGTFLQMVEDGVVEKIELTDTQIFLTSTVDNDDKVYTTGVMPDQDLTNRLIEAGVVNFGKVV | -0.21
29 | HMLKHEEIQEYIKEQINSGTWKPKAKLPSLRDMSELFSTSIGTVLTAYSALEKKHIIYSIPRSGYYVLG | -1.11
30 | HMGQISDESVLKEMVVQLIADNPKEVASYLGGKETLLQWFMGQVARATKGKADPQAVKQLLLDEFEKLK | 0.092
31 | HMKVGEIIKAKREELKIPLVNFAKELDISQGYLSQIENGIKTNPNLDIILKIIHRLDIDLAMLL | -1.32
32 | HMLGVLEYYNNGQKKSERTFKGGMQIYTEWYENGQMKAEERKWIDQLGSLKFLNLLSTEWDENGNEISRME | -1.34
33 | HMKSFDERQAALNELAKVIEGTGRKAEQDAEFRREQNQLMIDKIDEQLKGDLTDSQREELKKERAALARK | 0.153
34 | HMIAIGDDARLDDAARFFRIAEDSYAAGDYRKSKENYIEARKLYAELGDHEKVNLINSKISAIDSIT | 0.0633
35 | HMGKPTPASQVATRWLTGNLPESLPVAGPAPSFEALARTVSTDLHPRSVLQELVRLGVAEEANGVVTLRRQ | -0.00643
36 | HMDGRVQATAEKLRAALDRLARSSVGSPMIERQLTVAALAREARVGRNAIYANHRDILDELIRVRQQRRA | 0.144
37 | HMSFFNGNQMKILRKKLQLNQEEMGEKLGIKKSYVSQLENNRKEITEEIDQILQELEQEYQDKM | -0.323
38 | HMHGYLSDPAARLIRARRKTLSIRITQEGNLEIRAPLGMPKGEIEAFLKEKAQWIETHRAKVLAEYA | -2.24
39 | HMGIVTMPGQGSKMRFDFDATGDLPSSTSWRGMFAYANNTKRAYVSTGTTMGGYNGWRQLIAMDEYGNYQT | -0.0345
40 | HMPEGTYLEKLAIENNNLQLIGLSREASQLVQLLQDAPQWRKVNLTGVLQADGAASGRDRFTMTAELQ | 0.0683
41 | HMGPVDFYQMFISELQHLAEKPVTVDALIESTQLHKSQLTEWLKRAVDDGVVKKLNRPARFQVKNK | -0.029
42 | HMKQISNTDELEAMIQKIIEDNSQQVEKFRSGNEKLFGWFVGQVMKNTQGAANPKVVNEILKKSLK | 0.177
43 | HMKVEFDAMDKRILELMAKEYDTVLMARHLPLTPIVIDVRKKRIREVLNLPDATDAEIVIEAKEKDII | -0.322
44 | HMSATVLVHVLGEVRKPGVVSLPEGSRVQDAITAAGGLTSRAKPGDLNLAARVSDGAQLVIGRSGSQVRTT | -0.0286
45 | HMDYLYHNGKEIDQGSIMYKMEDYSDGIFELQSAKYADGTELDEKELEELESTQELIDWVMIDFVS | 0.42
46 | HMPNTLAGIERYLGSGMVKGIGPVYASRLVSAFGTAVFDVIEQTPERLREIDGIGEKRTRKITSGWADQ | -0.127
47 | HMAQVDAVQQVLQAFPALRSGQSQHLSQVVAALRQRGILTVGTKTTAWFAQWASVFQLLPLQVPNRIRYQS | -0.066
48 | HMDKLEKRILDYLLQKSAIDGSTILKISHREMAMDLGTAREVVTRILKKLETGGFVRQGENYLEILK | -0.145
49 | HMGPPAVGSKLQDARKAQQLSLDELSKRAGVSKSMLSEVERNQANPTVGVLWRLATALGISLTDLLG | -0.374
50 | HMEAIYKKNKNLIHTVIRDNFPFLIDTADYEDAFQEGSIGLIRAIDRFDDGLEYKFSSYAYTAIRNQIA | -0.409

Row | Sequence | soluble fraction (log2)
51 | HMSFDTFKKVFSNLVEKSGYSDAEIARRLGVNRSTISRWKSGEQSPPLPKVKEIANFFGVSPMVFVD | 0.0554
52 | HMNAMKPVLTVSLGVHTDSLSRRLNEEGIIYRWQQAASEQLLLVDSESSSERIAELIHDWRLEQSSS | -0.0169
53 | HMVDIIMDLLEAVAQARPADAFIKSLHIQYQERGGLSKKQLQGLYGKAAKTAGIPPGKLATLEAIILKRP | -1.38
54 | HMIGAKVLVNGQLHRDSYGEGPGQTESNATRLVNYINMKGSHPYHVTTLDGGWRGWVTADSVQV | 0.223
55 | HMVERLVVSPGAGVFAPNKAIANGTRISVGDVLGMVGEQEVRSLFDGVLQSFISVDGERLTAHQPVAWLRT | -0.536
56 | HMIVDINDVRIDKYIADNTDYSRNLILNLIKNGDILVNDSKIKPSYKVKQGDKITINNVKTD | 0.227
57 | HMAKVSVNIILKDGVDQTTFVNDVTSNTEVDLKNQLISLPQMVVLSVEEDYINTLKSHSSISILELDE | -0.00499
58 | HMYEINEIIRERRLKKGLTQAQVAKYLGVSAPAVNKWEKGTTYPDLVLLPALARLLDTDLTTLLSF | -1.38
59 | HMSEPRYRQLATILAQEIRSNHSAGDQLPSEQALAKRFEVNRHTVRRAVDELVAAGMVTRHQGWGTQVV | -0.0244
60 | HMNKELVVPDLTDMRVKDAEFEAHQVGMRTEIVDSVYVRRLKRGYVYKQNPVPGSKVKKGRRIALTINAV | 0.202
61 | HMSFGESLKKLSIALNSIRKLATTDAGKKDPKVADLLGQIRDTFNSYRTHLRKNYPDLYSGIKNQL | -0.62
62 | HMGAGLKIGNDHEYANYLEYKVSVEKYAPGAILGEIKQKGIQFNTTISKTTFYRYITDGVFLTITNADLPV | 0.223
63 | HMTKPLHELLSQREFQVFTQLAAGRSVGEIAQQLSLSSNTVSTYRARILEKTGTRNDVELALYAIRR | -1.52
64 | HMNTSSVTVHYQDEAGKSLADTVTLTGKVGETYSSEQKKITGYNFKEVRGNPKGQFTTEAQTVTYVYTQAA | 0.156
65 | HMANDNFPLKLGSKGPRVLQLKTMLIQSLSNDALPKGRSSDAFDSELEALLSRNNLPTVIDETNFRVLTK | 0.386
66 | HMSDESALLELVKQIIADNPKAVEEIRAGKEKAMGFLIGQAMKASRGSANPQIISRLVREQLG | 0.128
67 | HMFPDLSPEQQRIVDVLTKSNDLQLNQLSVKTGIPIGDITSILFQMEMMGVVKPMAGGNYHLL | -1.36
68 | HMFMSKTAMVAIISEADKYGLFNIPEGLSVEKTADEIFEGHIEVDFDKLKNELDFVYKNEALEKQFQEN | -0.534
69 | HMSNFGERLRALRQDRQMTLQQASKVTGVAQSTLSKMENNQLSPTFNLMQKLAIGLGIDMPQLFAPVK | -0.108
70 | HMGNKKLVLKLSKKLIKIPSFLNIYSVKLTKNGRELEINLDKSQNEAIDIINLIKKNNISFLEFDIKKR | -0.267
71 | HMPADHYEVLGIARDADAAEVKRAYRRLARESHPDANHGDSGAEVRFKAVSAAYEVLSDPERRARYDRFGH | -0.00211
72 | HMYNIDSFMTKNYPTMERFTLSDVQKKYKTTFGLFVKQDELASMIEKTGRFNITSSKNVKYVNR | -1.77
73 | HMNPIEAQIEELKNKDQKTAYQALKHLLAISETRAEVSYYFDRFVALLQDPQSYVRTRGLLLIGA | 0.271
74 | HMNFAERIKELRKEKGITQIDLAEAVGLSKGTVAMWEVDKREANFDTLNKLSDYFQVSIDYLLGRSNDRS | 0.0272
75 | HMEAPMPIFWRPQFRIGHDDIDADHRYLILLINTVELVLRFPDDPRNVELALTELRRYAEDHFEREER | -0.161
